Measured values from paper PMC9402538 (2022).
The star is where a group is joined. FITC = O=C1OC2(c3ccc(O)cc3Oc3cc(O)ccc32)c2ccc(NC(=S)*)cc21; Cbz = O=C(OCc1ccccc1)*

T1: APC (303–739) (UniProt P25054 303-739)
T1 chain: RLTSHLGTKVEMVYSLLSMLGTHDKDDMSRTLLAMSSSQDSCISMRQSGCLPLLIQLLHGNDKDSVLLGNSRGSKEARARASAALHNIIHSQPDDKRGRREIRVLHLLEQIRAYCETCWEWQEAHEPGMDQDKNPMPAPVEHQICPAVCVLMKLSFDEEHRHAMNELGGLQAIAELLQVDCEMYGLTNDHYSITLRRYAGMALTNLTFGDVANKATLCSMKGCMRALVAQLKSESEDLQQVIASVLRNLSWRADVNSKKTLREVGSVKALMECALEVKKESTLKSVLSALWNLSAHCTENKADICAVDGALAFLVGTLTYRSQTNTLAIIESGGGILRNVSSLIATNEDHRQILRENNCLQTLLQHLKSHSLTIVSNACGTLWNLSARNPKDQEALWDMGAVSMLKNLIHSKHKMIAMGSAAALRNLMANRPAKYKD


Molecular target: T1, APC (303–739)
Assay: ITC

| Ka | Binder |
| --- | --- |
| 1.29e+07 M⁻¹ | Cbz-AGESLYEK(FITC)-NH2 [tracer 7 (Z–AGESLYEK[FITC]–NH2)] |
| 1.73e+06 M⁻¹ | Ac-GGGGEQLAINELISDGK(FITC)-NH2 [tracer 1 (Ac–GGGGEQLAINELISDGK[FITC]–NH2)] |
